# Where a chain is given by its changes, count along the chain named.
# T1: MPDZ_10, O75970
# T1 sequence (O75970 1624-1722, limits assumed, looked up): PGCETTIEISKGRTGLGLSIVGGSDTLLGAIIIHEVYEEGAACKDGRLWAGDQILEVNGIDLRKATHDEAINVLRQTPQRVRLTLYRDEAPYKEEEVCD
# T2: APBA2_2, Q99767
# T2 sequence (Q99767 654-744, limits assumed, looked up): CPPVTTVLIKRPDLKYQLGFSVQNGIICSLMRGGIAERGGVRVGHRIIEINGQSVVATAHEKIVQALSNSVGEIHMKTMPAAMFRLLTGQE
# T3: SNTG2, Q9NY99
# T3 sequence (Q9NY99 68-166, limits assumed, looked up): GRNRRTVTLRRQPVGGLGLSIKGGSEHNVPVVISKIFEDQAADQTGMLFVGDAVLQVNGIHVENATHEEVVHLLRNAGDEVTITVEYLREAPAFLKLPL
# T4: MPP7, Q5T2T1
# T4 sequence (Q5T2T1 134-230, limits assumed, looked up): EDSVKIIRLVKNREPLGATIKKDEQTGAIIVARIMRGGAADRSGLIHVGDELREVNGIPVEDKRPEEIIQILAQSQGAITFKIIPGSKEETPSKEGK
# T5: GRIP1_7, Q9Y3R0
# T5 sequence (Q9Y3R0 999-1096, limits assumed, looked up): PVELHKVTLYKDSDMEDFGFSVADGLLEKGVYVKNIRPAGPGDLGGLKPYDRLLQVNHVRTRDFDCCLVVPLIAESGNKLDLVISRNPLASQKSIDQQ
# T6: MPP2, Q14168
# T6 sequence (Q14168 180-250, limits assumed, looked up): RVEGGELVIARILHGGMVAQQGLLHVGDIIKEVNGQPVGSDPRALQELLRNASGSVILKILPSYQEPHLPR
# T7: APBA1_2, Q02410
# T7 sequence (Q02410 742-832, limits assumed, looked up): T2 sequence (Q99767 654-744, limits assumed, looked up) with K10R, K15R, A59P, Q65H, A66I, S70A, F84Y, G89A
# T8: MPP6, Q9NZW5
# T8 sequence (Q9NZW5 125-219, limits assumed, looked up): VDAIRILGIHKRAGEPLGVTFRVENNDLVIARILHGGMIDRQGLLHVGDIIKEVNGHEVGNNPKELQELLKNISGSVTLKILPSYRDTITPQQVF
# T9: MPDZ_5, O75970
# T9 sequence (O75970 695-796, limits assumed, looked up): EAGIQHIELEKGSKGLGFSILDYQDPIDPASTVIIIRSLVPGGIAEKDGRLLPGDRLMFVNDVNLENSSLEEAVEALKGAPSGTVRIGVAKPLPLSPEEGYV
# T10: PCLO, Q9Y6V0
# T10 sequence (Q9Y6V0 4491-4600, limits assumed, looked up): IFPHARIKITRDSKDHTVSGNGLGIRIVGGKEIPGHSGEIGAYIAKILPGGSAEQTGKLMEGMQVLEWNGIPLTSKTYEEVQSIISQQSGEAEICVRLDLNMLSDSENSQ
# T11: HTRA4, P83105
# T11 sequence (P83105 378-476, limits assumed, looked up): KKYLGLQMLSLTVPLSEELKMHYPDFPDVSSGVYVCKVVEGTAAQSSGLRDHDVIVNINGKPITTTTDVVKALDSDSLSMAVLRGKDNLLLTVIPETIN
# T12: ARHGAP21, Q5T5U3
# T12 sequence (Q5T5U3 45-169, limits assumed, looked up): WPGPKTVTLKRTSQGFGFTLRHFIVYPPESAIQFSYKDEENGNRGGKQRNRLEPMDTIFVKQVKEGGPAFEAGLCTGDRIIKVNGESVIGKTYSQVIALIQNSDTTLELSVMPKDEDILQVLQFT
# Assays:
# Assay in all cases: holdup assay
# Parameters in all cases: key: below the threshold = too weak to quantify, mostly under pKd 3.1 to 4
# Conditions in all cases: plain residues with an end cap or a label only (N-terminal biotin on a linker: ado-ado)
# MAGI2_3, Q86UL8 = target: MAGI2_3, Q86UL8
# GRIP2_3, Q9C0E4 = target: GRIP2_3, Q9C0E4
# MPDZ_10, O75970 = target: T1, MPDZ_10, O75970
# APBA2_2, Q99767 = target: T2, APBA2_2, Q99767
# SNTG2, Q9NY99 = target: T3, SNTG2, Q9NY99
# MPP7, Q5T2T1 = target: T4, MPP7, Q5T2T1
# GRIP1_7, Q9Y3R0 = target: T5, GRIP1_7, Q9Y3R0
# MPP2, Q14168 = target: T6, MPP2, Q14168
# MAGI2_6, Q86UL8 = target: MAGI2_6, Q86UL8
# GRIP2_4, Q9C0E4 = target: GRIP2_4, Q9C0E4
# APBA1_2, Q02410 = target: T7, APBA1_2, Q02410
# LNX1_1, Q8TBB1 = target: LNX1_1, Q8TBB1
# DLG1_1, Q12959 = target: DLG1_1, Q12959
# MPP6, Q9NZW5 = target: T8, MPP6, Q9NZW5
# NHERF4_2, Q86UT5 = target: NHERF4_2, Q86UT5
# MPDZ_5, O75970 = target: T9, MPDZ_5, O75970
# PCLO, Q9Y6V0 = target: T10, PCLO, Q9Y6V0
# HTRA4, P83105 = target: T11, HTRA4, P83105
# DLG1_3, Q12959 = target: DLG1_3, Q12959
# SCRIB_2, Q14160 = target: SCRIB_2, Q14160
# IL16_1, Q14005 = target: IL16_1, Q14005
# MAGI3_2, Q5TCQ9 = target: MAGI3_2, Q5TCQ9
# LAP2, Q96RT1 = target: LAP2, Q96RT1
# NHERF2_2, Q15599 = target: NHERF2_2, Q15599
# ARHGAP21, Q5T5U3 = target: T12, ARHGAP21, Q5T5U3
# GRIP2_5, Q9C0E4 = target: GRIP2_5, Q9C0E4
# GRIP2_5, Q9C0E4, sequence (Q9C0E4 544-642): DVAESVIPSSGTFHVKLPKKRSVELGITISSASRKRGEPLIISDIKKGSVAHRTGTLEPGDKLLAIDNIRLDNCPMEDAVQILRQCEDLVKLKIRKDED
# IL16_1, Q14005, sequence (Q14005 210-306): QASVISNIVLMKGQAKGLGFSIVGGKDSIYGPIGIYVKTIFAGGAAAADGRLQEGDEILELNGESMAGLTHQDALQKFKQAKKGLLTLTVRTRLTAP
# NHERF4_2, Q86UT5, sequence (Q86UT5 220-308): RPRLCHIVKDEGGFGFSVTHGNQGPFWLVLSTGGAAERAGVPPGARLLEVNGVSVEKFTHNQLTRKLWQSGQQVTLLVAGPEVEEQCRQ
# MAGI2_3, Q86UL8, sequence (Q86UL8 600-682): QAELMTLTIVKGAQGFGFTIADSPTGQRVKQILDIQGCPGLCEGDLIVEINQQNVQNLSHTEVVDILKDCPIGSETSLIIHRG
# MAGI3_2, Q5TCQ9, sequence (Q5TCQ9 398-503): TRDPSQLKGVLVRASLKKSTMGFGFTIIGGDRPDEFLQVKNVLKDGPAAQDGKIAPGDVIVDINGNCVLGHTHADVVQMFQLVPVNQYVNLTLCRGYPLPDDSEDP
# GRIP2_4, Q9C0E4, sequence (Q9C0E4 446-548): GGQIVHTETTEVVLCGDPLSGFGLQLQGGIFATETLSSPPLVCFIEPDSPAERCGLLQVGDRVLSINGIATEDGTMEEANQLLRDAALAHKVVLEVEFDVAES
# LNX1_1, Q8TBB1, sequence (Q8TBB1 261-371): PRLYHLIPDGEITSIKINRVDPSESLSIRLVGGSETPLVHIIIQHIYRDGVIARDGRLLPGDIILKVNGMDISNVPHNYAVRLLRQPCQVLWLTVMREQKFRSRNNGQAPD
# LAP2, Q96RT1, sequence (Q96RT1 other isoform, or with tags, fused parts or gaps): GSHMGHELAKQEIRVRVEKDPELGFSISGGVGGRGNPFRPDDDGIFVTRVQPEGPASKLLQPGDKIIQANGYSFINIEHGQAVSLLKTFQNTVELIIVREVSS
# MAGI2_6, Q86UL8, sequence (Q86UL8 1141-1229): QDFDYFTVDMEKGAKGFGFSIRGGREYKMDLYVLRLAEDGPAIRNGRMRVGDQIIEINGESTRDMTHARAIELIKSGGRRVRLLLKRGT
# NHERF2_2, Q15599, sequence (Q15599 142-238): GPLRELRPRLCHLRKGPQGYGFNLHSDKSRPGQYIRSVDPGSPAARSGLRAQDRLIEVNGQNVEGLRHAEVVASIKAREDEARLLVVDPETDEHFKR
# GRIP2_3, Q9C0E4, sequence (Q9C0E4 238-339): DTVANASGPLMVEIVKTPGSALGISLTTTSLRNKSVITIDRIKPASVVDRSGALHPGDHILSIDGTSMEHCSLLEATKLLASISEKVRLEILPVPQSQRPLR
# SCRIB_2, Q14160, sequence (Q14160 857-960): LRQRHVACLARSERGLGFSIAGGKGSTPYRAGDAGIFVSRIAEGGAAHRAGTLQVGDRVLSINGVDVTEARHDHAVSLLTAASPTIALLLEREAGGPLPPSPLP
Binder,"pKd (MAGI2_3, Q86UL8)","pKd (GRIP2_3, Q9C0E4)","pKd (MPDZ_10, O75970)","pKd (APBA2_2, Q99767)","pKd (SNTG2, Q9NY99)","pKd (MPP7, Q5T2T1)","pKd (GRIP1_7, Q9Y3R0)","pKd (MPP2, Q14168)","pKd (MAGI2_6, Q86UL8)","pKd (GRIP2_4, Q9C0E4)","pKd (APBA1_2, Q02410)","pKd (LNX1_1, Q8TBB1)","pKd (DLG1_1, Q12959)","pKd (MPP6, Q9NZW5)","pKd (NHERF4_2, Q86UT5)","pKd (MPDZ_5, O75970)","pKd (PCLO, Q9Y6V0)","pKd (HTRA4, P83105)","pKd (DLG1_3, Q12959)","pKd (SCRIB_2, Q14160)",also measured
"SRPRPDDLEI [GJA1, P17302]",below the threshold,below the threshold,below the threshold,below the threshold,below the threshold,below the threshold,below the threshold,below the threshold,below the threshold,below the threshold,below the threshold,below the threshold,below the threshold,3.62,below the threshold,below the threshold,below the threshold,below the threshold,below the threshold,below the threshold,"pKd (IL16_1, Q14005): below the threshold; pKd (MAGI3_2, Q5TCQ9): below the threshold; pKd (LAP2, Q96RT1): below the threshold; pKd (NHERF2_2, Q15599): below the threshold; pKd (ARHGAP21, Q5T5U3): 3.74; pKd (GRIP2_5, Q9C0E4): below the threshold"
"ANGLMQTSKL [SSTR5, P35346]",3.48,below the threshold,below the threshold,below the threshold,3.62,below the threshold,below the threshold,below the threshold,below the threshold,below the threshold,below the threshold,below the threshold,below the threshold,below the threshold,below the threshold,below the threshold,below the threshold,3.7,below the threshold,below the threshold,"pKd (IL16_1, Q14005): below the threshold; pKd (MAGI3_2, Q5TCQ9): below the threshold; pKd (LAP2, Q96RT1): below the threshold; pKd (NHERF2_2, Q15599): 4.64; pKd (ARHGAP21, Q5T5U3): 3.97; pKd (GRIP2_5, Q9C0E4): below the threshold"
"NVYGTESVKI [GRIA3, P42263]",below the threshold,below the threshold,below the threshold,below the threshold,below the threshold,below the threshold,below the threshold,below the threshold,below the threshold,below the threshold,below the threshold,below the threshold,below the threshold,below the threshold,below the threshold,below the threshold,below the threshold,4,below the threshold,below the threshold,"pKd (IL16_1, Q14005): below the threshold; pKd (MAGI3_2, Q5TCQ9): below the threshold; pKd (LAP2, Q96RT1): below the threshold; pKd (NHERF2_2, Q15599): 3.47; pKd (ARHGAP21, Q5T5U3): 4.38; pKd (GRIP2_5, Q9C0E4): below the threshold"
"ETSLVKGIDI [DENND5A, Q6IQ26]",below the threshold,below the threshold,below the threshold,below the threshold,below the threshold,4.47,below the threshold,below the threshold,below the threshold,below the threshold,3.47,3.79,3.67,below the threshold,below the threshold,below the threshold,below the threshold,4.13,3.76,below the threshold,"pKd (IL16_1, Q14005): below the threshold; pKd (MAGI3_2, Q5TCQ9): 4.39; pKd (LAP2, Q96RT1): 3.57; pKd (NHERF2_2, Q15599): 3.48; pKd (ARHGAP21, Q5T5U3): 4.25; pKd (GRIP2_5, Q9C0E4): below the threshold"

# Source: article PMC9482650, “Quantitative fragmentomics allow affinity mapping of interactomes” (Nature Communications, 2022)
